Data published in patent publication US20150344570A1 (published 2015).
Changes are numbered by the printed parent chain. Names and notes keep the numbering of the source.

T1: FcgRIIb (human, UniProt P31994 43-217)
T1 construct: extracellular domain; also called FcγRIIb; 2b; not shown: His tag at the C terminus
T1 sequence (looked up): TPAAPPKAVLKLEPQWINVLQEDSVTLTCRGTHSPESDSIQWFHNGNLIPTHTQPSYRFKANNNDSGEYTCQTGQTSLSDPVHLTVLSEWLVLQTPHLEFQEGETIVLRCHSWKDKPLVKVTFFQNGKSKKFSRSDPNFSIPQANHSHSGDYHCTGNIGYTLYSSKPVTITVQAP

T2: FcgRIIaH (human, UniProt P12318 34-217)
T2 construct: extracellular domain; also called FcγRIIa H; FcγRIIa type H; not shown: His tag at the C terminus
T2 sequence (looked up): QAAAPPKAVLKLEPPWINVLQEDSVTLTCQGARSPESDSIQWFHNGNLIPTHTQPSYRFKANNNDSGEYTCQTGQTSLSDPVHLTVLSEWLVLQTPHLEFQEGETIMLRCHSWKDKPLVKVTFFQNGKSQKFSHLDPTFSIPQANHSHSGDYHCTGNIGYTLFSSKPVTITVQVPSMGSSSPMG

T3: FcgRIIaR (human, UniProt P12318 34-217)
T3 construct: extracellular domain; also called FcγRIIa R; FcγRIIa type R; not shown: His tag at the C terminus
T3 sequence (looked up): T2 sequence (looked up) with H134R

T4: FcγRIIb, extracellular domain with C-terminal His tag (human, UniProt P31994 43-217)
T4 construct: extracellular domain; also called FcgRIIb; 2b; not shown: His tag attached to the C terminus
T4 sequence (looked up): T1 sequence (looked up)

T5: FcγRIIa R (FcγRIIa allotype with Arg at position 131), extracellular domain with C-terminal His tag (human, UniProt P12318 34-217)
T5 chain: T2 sequence (looked up) with H134R

B1: H240-Kn125/H240-Hl076/L73-k0 (antibody, human IgG1, kappa)
heavy 1: QDQLVQSGAEVKKPGASVKVSCKASGFNIKDTYIQWVRQAPGQGLEWMGRIDPLRKQTKYREKFEGRVTITADTSTNTAYMELSSLRSEDTAVYYCVRSGREFDYWGQGTLVTVSSASTKGPSVFPLAPSSKSTSGGTAALGCLVKDYFPEPVTVSWNSGALTSGVHTFPAVLQSSGLYSLSSVVTVPSSSLGTQTYICNVNHKPSNTKVDKKVEPKSCDKTHTCPPCPAPEYQWGPMVFLFPPKPKDTLMISRTPEVTCVVVDVSDEEPEVKFNWYVDGVEVHNAKTKPREEQYNATYRVVSVLTVLHQDWLNGKEYKCKVSNKALPAPIEKTISKAKGQPREPQVCTLPPSRDELTKNQVSLWCLVKGFYPSDIAVEWESNGQPENNYKTTPPVLDSDGSFFLYSKLTVDKSRWQQGNVFSCSVMHEALHNHYTQKSLSLSP
heavy 2: QDQLVQSGAEVKKPGASVKVSCKASGFNIKDTYIQWVRQAPGQGLEWMGRIDPLRKQTKYREKFEGRVTITADTSTNTAYMELSSLRSEDTAVYYCVRSGREFDYWGQGTLVTVSSASTKGPSVFPLAPSSKSTSGGTAALGCLVKDYFPEPVTVSWNSGALTSGVHTFPAVLQSSGLYSLSSVVTVPSSSLGTQTYICNVNHKPSNTKVDKKVEPKSCDKTHTCPPCPAPELLGGPSVFLFPPKPKDTLMISRTPEVTCVVVDVSHEEPEVKFNWYVDGVEVHNAKTKPREEQYNSTYRVVSVLTVLHQDWLNGKEYKCKVSNDALPMPIEETISKAKGQPREPQVYTLPPSRCELTKNQVSLSCAVKGFYPSDIAVEWESNGQPENNYKTTPPVLDSDGSFFLVSKLTVDKSRWQQGNVFSCSVMHEALHNHYTQKSLSLSP
light: DIQMTQSPSSLSASVGDRVTITCRASQDIHKYIAWYQQKPGQAPRLLIQYTSTLQPGVPSRFSGSGSGTDYTFTISSLQPEDIATYYCLQYEQLRTFGGGTKVEIKRTVAAPSVFIFPPSDEQLKSGTASVVCLLNNFYPREAKVQWKVDNALQSGNSQESVTEQDSKDSTYSLSSTLTLSKADYEKHKVYACEVTHQGLSSPVTKSFNRGEC
notes: Template of the position 330 series
B2: H240-Kn125/H240-Hl217/L73-k0 (antibody, human IgG1, kappa)
heavy 1: B1 heavy 1
heavy 2: B1 heavy 2 with M329Y
light: B1 light
B3: H240-Kn125/H240-Hl210/L73-k0 (antibody, human IgG1, kappa)
heavy 1: B1 heavy 1
heavy 2: B1 heavy 2 with M329A
light: B1 light
B4: H240-Kn125/H240-Hl214/L73-k0 (antibody, human IgG1, kappa)
heavy 1: B1 heavy 1
heavy 2: B1 heavy 2 with M329F
light: B1 light
B5: H240-Kn125/H240-Hl216/L73-k0 (antibody, human IgG1, kappa)
heavy 1: B1 heavy 1
heavy 2: B1 heavy 2 with M329I
light: B1 light
B6: H240-Kn125/H240-Hl218/L73-k0 (antibody, human IgG1, kappa)
heavy 1: B1 heavy 1
heavy 2: B1 heavy 2 with M329H
light: B1 light
B7: GpH7-A5/GpH7-B3 variant L328_13S/GpL16-k0 (heterodimerized antibody He Ab, L328S in one H chain) (antibody, human IgG1, kappa)
heavy 1: not shown
heavy 2: not shown
light: DIVMTQSPLSLPVTPGEPASISCQASESLVHSNRNTYLHWYLQKPGQSPQLLIYKVSNRFSGVPDRFSGSGSGTDFTLKISRVEAEDVGVYYCSQNTHVPPTFGQGTKVEIERTVAAPSVFIFPPSDEQLKSGTASVVCLLNNFYPREAKVQWKVDNALQSGNSQESVTEQDSKDSTYSLSSTLTLSKADYEKHKVYACEVTHQGLSSPVTKSFNRGEC
notes: Anti-glypican-3 human IgG1-type antibody; the alteration is in only one of the two H chains (the GpH7-B3 chain)

Experiments:
FcgRIIb [1] = target: T1, FcgRIIb; experiment: SPR (Biacore); KD of H240-Kn033/H240-Hl033/L73-k0 divided by KD of the variant
Method: (§1) Next, the amino acid at position 330 was examined. The A330M alteration has been introduced into H240-Hl076 of H240-Kn125/H240-Hl076/L73-k0. […] L73-k0 was used as the common antibody L chain. Binding of the produced variants to FcgRIa, FcgRIIaR, FcgRIIaH, FcgRIIb, FcgRIIIaF, and FcgRIIIaV was measured according to the method of Reference Example 8.
(§2) Analysis of interaction between objective antibody and the FcγR was carried out using Biacore T100 (GE Healthcare), Biacore T200, Biacore A100, and Biacore 4000. HBS-EP+ (GE Healthcare) was used as the running buffer, and the measurement temperature was set to 25° C. Chips produced by immobilizing the antigen peptide by the amine coupling method to a Series S sensor Chip CM5 (GE Healthcare), chips produced by allowing preliminarily biotinylated antigen peptides to interact with and immobilize onto a Series S Sensor Chip SA (certified) (GE Healthcare), chips produced by immobilizing Protein L (ACTIGEN, BioVision) to Series S Sencor Chip CM5 (GE Healthcare), or chips produced by immobilizing Protein A/G (Thermo Scientific) to Series S Sencor Chip CM5 (GE Healthcare) were used. Antibodies of interest were captured onto these chips, and allowed to interact to each FcγR diluted with running buffer. To regenerate and repeatedly use the chip, the antibodies captured onto the chip were washed off by reacting 10 mM glycine-HCl, pH 1.5.

FcgRIIIaF [2] = target: T6, FcgRIIIaF (human, UniProt P08637 17-208); experiment: as above
T6 construct: extracellular domain; Polymorphic site after J. Clin. Invest; also called FcγRIIIa F; 3aF; not shown: His tag at the C terminus
Method: as §1, §2

FcgRIIIaV [3] = target: T7, FcgRIIIaV (human, UniProt P08637 17-208); experiment: as above
T7 construct: extracellular domain; Polymorphic site after J. Clin. Invest; also called FcγRIIIa V; 3aV; not shown: His tag at the C terminus
Method: as §1, §2

FcgRIIaH [4] = target: T2, FcgRIIaH; experiment: as above
Method: as §1, §2

FcgRIIaR [5] = target: T3, FcgRIIaR; experiment: as above
Method: as §1, §2

FcgRIIb [6] = target: T1, FcgRIIb; experiment: SPR (Biacore), antibody captured, FcgR extracellular domain as analyte
Method: as §1, §2

FcgRIIIaF [7] = target: T6, FcgRIIIaF; experiment: as above
Method: as §1, §2

FcgRIIIaV [8] = target: T7, FcgRIIIaV; experiment: as above
Method: as §1, §2

FcgRIIaH [9] = target: T2, FcgRIIaH; experiment: as above
Method: as §1, §2

FcgRIIaR [10] = target: T3, FcgRIIaR; experiment: as above
Method: as §1, §2

FcgRIa = target: T8, FcgRIa (human, UniProt P12314 16-292); experiment: as above
T8 construct: extracellular domain; also called FcγRIa; FcγRI; not shown: His tag at the C terminus
Method: as §1, §2

[11] = target: T4, FcγRIIb, extracellular domain with …; experiment: SPR (Biacore T100), antibody captured on antigen peptide chip, FcγR as analyte; binding amount relative to control heterodimerized antibody
Method: (§3) The heterodimerized antibodies He Abs in which one of the H chains was introduced with an alteration were assayed for their binding activities to each activating FcγR and inhibitory FcγR according to the method described in Example 4. […] The activating FcγRs in FIGS. 26, 27, 28, and 29 are FcγRIa, FcγRIIa (R), FcγRIIa (H), and FcγRIIIa, respectively.
(§4) Analysis of interaction between objective antibody and the FcγR was carried out using Biacore T100 (GE Healthcare). HBS-EP+ (GE Healthcare) was used as the running buffer, and the measurement temperature was set to 25° C. Chips produced by immobilizing the antigen peptide by the amine coupling method to a Series S Sencor Chip CM5 (GE Healthcare), or alternatively, chips produced by allowing preliminarily biotinylated antigen peptides to interact with and immobilize onto a Series S Sensor Chip SA (certified) (GE Healthcare) were used. Antibodies of interest were captured onto an antigen peptide-immobilized chip, and allowed to interact to each FcγR diluted with running buffer. To regenerate and repeatedly use the chip, the antibodies captured on the chip were washed off by reacting 10 mM glycine-HCl, pH 1.5.

[12] = target: T5, FcγRIIa R (FcγRIIa allotype with Arg at …); experiment: as above
Method: as §3, §4

[13] = target: T5, FcγRIIa R (FcγRIIa allotype with Arg at …); experiment: SPR (Biacore T100); ratio of He/Con for FcγRIIa R to He/Con for FcγRIIb of the same antibody

T6 sequence (P08637 17-208): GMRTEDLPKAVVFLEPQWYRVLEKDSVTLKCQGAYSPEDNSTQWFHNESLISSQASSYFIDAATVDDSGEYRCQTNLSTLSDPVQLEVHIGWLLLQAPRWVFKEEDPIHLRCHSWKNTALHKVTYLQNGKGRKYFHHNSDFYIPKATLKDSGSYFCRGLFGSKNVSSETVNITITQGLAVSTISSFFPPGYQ
T7 sequence (P08637 17-208 F176V limits assumed): as the sequence (P08637 17-208) above, with F160V counted along it
T8 sequence (P12314 16-292): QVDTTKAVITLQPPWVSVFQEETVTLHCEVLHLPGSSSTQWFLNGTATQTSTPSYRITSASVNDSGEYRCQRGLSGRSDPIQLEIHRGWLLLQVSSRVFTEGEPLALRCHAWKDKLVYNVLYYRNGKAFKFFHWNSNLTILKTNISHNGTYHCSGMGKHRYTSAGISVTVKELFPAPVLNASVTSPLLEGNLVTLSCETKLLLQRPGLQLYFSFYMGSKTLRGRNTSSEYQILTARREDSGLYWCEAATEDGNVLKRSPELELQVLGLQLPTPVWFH

Binder	fold 2b (FcgRIIb [1])	fold 3aF (FcgRIIIaF [2])	fold 3aV (FcgRIIIaV [3])	fold 2aH (FcgRIIaH [4])	fold 2aR (FcgRIIaR [5])	Kd (FcgRIIb [6])	Kd (FcgRIIIaF [7])	Kd (FcgRIIIaV [8])	Kd (FcgRIIaH [9])	Kd (FcgRIIaR [10])	Kd (FcgRIa)	He/Con_2b (IIb binding) [11]	He/Con_2aR (IIaR binding) [12]	He_2aR/2b (IIaR/IIb) [13]
B1	0.8 fold	223 fold	185 fold	3.7 fold	1.8 fold	3900 nM	1.3 nM	0.26 nM	140 nM	420 nM	0.066 nM	–	–	–
B2	0.9 fold	121 fold	146 fold	4 fold	1.7 fold	3500 nM	2.4 nM	0.33 nM	130 nM	440 nM	0.076 nM	–	–	–
B3	0.5 fold	70.7 fold	100 fold	3.5 fold	1.1 fold	6900 nM	4.1 nM	0.48 nM	150 nM	650 nM	0.065 nM	–	–	–
B4	0.8 fold	181 fold	126 fold	3.5 fold	1.6 fold	4400 nM	1.6 nM	0.38 nM	150 nM	450 nM	0.08 nM	–	–	–
B5	0.4 fold	107 fold	80 fold	2.5 fold	1 fold	8300 nM	2.7 nM	0.6 nM	210 nM	770 nM	0.073 nM	–	–	–
B6	1.1 fold	112 fold	70.6 fold	4.7 fold	2.4 fold	2900 nM	2.6 nM	0.68 nM	110 nM	310 nM	0.092 nM	–	–	–
B7	–	–	–	–	–	–	–	–	–	–	–	149 relative binding activity, GpH7-A5/GpH7-B3/GpL16-k0 = 100	117 relative binding activity, GpH7-A5/GpH7-B3/GpL16-k0 = 100	0.78
